The record followed here is article PMC6358605, “MANF antagonizes nucleotide exchange by the endoplasmic reticulum chaperone BiP” (Nature Communications, 2019).

Data set [1] deals with T1, BiP NBD (28–413) (Chinese hamster, UniProt G3I8R9 28-413).
T1 construct: UK2039 is named for the crystals and the MABA-ADP assay; also called UK2039; source: E. coli M15, purified (nickel chelating, tag cleavage, anion exchange, SEC); not shown: His6-Smt3, N-terminal, cleaved
Briefly: BLI; sequential dipping: streptavidin biosensors loaded with biotinylated MANF, SAP or SAPLIP, dipped in BiP SBD, buffer, BiP NBD with 2 mM ATP, 2 mM ATP, BiP NBD with 2 mM ADP, 2 mM ADP; HKMT buffer. The note with it: both partners purified.

Data set [2] deals with the molecule itself. Briefly: crystal structure; lidless BiP^V461F (apo) crystals from a co-crystallisation mix with MANF or SAP; only BiP^V461F present in the crystal; contacts between protomers of the lattice.

T1 sequence (G3I8R9 28-413): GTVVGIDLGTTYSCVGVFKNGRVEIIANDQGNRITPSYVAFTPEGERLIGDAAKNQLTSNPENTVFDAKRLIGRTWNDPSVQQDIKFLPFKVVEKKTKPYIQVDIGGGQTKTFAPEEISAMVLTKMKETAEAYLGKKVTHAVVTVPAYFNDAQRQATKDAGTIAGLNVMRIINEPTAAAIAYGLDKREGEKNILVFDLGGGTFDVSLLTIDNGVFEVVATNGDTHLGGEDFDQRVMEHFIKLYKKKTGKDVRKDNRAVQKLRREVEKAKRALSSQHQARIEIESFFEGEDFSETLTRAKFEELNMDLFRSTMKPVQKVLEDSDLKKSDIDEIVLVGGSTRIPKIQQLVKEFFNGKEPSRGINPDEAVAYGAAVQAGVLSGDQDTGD

B1: biotinylated AviTag-MANF^22–179 (natural protein, mouse, UniProt Q9CXI5 22-179, looked up)
chain: LRPGDCEVCISYLGRFYQDLKDRDVTFSPATIEEELIKFCREARGKENRLCYYIGATDDAATKIINEVSKPLAHHIPVEKICEKLKKKDSQICELKYDKQIDLSTVDLKKLRVKELKKILDDWGEMCKGCAEKSDYIRKINELMPKYAPKAASARTDL
modifications: biotin (on the AviTag, by E. coli BirA)
notes: mesencephalic astrocyte-derived neurotrophic factor (MANF), mouse, residues 22-179; Ligand on streptavidin BLI sensors; also called mMANF; UK1987; source: E. coli Origami B (DE3), purified (GSTrap, TEV cleavage), biotinylated in vitro with BirA; not shown: GST, N-terminal, cleaved; AviTag, N-terminal, kept
As for B1, the binding result in data set [1] is reported as “binds”.

B2: lidless Chinese hamster BiP^V461F (28–549) (domain or fragment)
chain: not shown
notes: BiP, Chinese hamster, residues 28-549 (C-terminal alpha-helical lid truncated), V461F; also called BiP^V461F (apo); UK2121; source: E. coli M15, purified (nickel chelating, anion exchange, SEC)
Take B2: the binding result in data set [2] is on record as “binds”.

B3: biotinylated AviTag-SAP^119–179 (domain or fragment, mouse, UniProt Q9CXI5 119-179, looked up)
chain: DKQIDLSTVDLKKLRVKELKKILDDWGEMCKGCAEKSDYIRKINELMPKYAPKAASARTDL
modifications: also: biotin on AviTag lysine (tag not in chain)
notes: C-terminal SAP (SAF-A/B, Acinus, and PIAS) domain of MANF, mouse, residues 119-179; also called SAP domain of MANF; UK2005; source: E. coli Origami B (DE3), purified (GSTrap, TEV cleavage), biotinylated in vitro with BirA; not shown: GST, N-terminal, cleaved; AviTag, N-terminal, kept
Take B3: the binding result in data set [1] is on record as “binds”.
